What was measured:
[1] = molecular target: the molecule itself; assay: negative staining transmission electron microscopy
AUC = molecular target: the molecule itself; assay: AUC

B1: human apolipoprotein (apo) C-II (natural protein, UniProt P02655 23-101, looked up)
chain: TQQPQQDEMPSPTFLTQVKESLSSYWESAKTAAQNLYEKTYLPAVDEKLRDLYSKSTAAMSTYTGIFTDQVLSVLKGEE
stoichiometry N [1]: ~621 subunits | Ka (AUC): 3.27e+11 M⁻¹
